Assay results reported in patent CN112851810A (BEIJING GUANGWEI BIOTECHNOLOGY CO LTD, dated 2021).

T1: 人CD20 (human CD20) (human, UniProt P11836 1-297, limits assumed)
T1 construct: also called 人CD20蛋白; 抗原
T1 sequence (looked up): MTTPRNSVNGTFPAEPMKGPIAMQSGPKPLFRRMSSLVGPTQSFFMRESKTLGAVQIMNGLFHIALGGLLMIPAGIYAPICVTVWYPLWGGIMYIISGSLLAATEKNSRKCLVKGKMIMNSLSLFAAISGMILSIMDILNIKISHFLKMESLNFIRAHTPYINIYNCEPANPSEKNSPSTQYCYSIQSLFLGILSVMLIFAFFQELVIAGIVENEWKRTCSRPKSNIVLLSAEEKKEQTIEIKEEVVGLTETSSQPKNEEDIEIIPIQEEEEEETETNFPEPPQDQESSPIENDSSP


Molecular target: T1, 人CD20 (human CD20)
Experiment: SPR (CM5 chip, antibody captured by anti-human capture antibody, antigen as analyte from 10 nM)

| Binder | Kd | koff | kon |
| --- | --- | --- | --- |
| h12H7-IgG1 (antibody, V domains shown) VH: QVQLVQSGAEVKKPGASVKVSCKASDYTFTSYAGKWVRQAPGQGLEWIGAIPTKGNDTSYNQFLKGRVTMTADTSTSTVYMELSSLRSEDTAVYYCAKGIDGCNFDYWGQGTTVTVSS VL: DIQMTQSPSSVSASVGDRVTITCKASQRVATGVAWYQQKPGKAPKALIYSAIGNRTGVPSRFSGSGSGTDFTLTISSLQPEDFATYYCQQASKIDAYPTFGQGTKLEIK | 0.307 nM | 4.21e-05 s⁻¹ | 137000 M⁻¹ s⁻¹ |
| Rituximab (antibody, V domains shown) VH: QVQLQQPGAELVKPGASVKMSCKASGYTFTSYNMHWVKQTPGRGLEWIGAIYPGNGDTSYNQKFKGKATLTADKSSSTAYMQLSSLTSEDSAVYYCARSTYYGGDWYFNVWGAGTTVTVSA VL: QIVLSQSPAILSASPGEKVTMTCRASSSVSYIHWFQQKPGSSPKPWIYATSNLASGVPVRFSGSGSGTSYSLTISRVEAEDAATYYCQQWTSNPPTFGGGTKLEIK | 5.46 nM | 0.000345 s⁻¹ | 63100 M⁻¹ s⁻¹ |
